The data set can be described thus: western blot of conditioned medium, 24 h. As to conditions: glycan lost; control: wild type. Background: In western blotting, separated proteins are transferred to a membrane and probed.

antithrombin: S137T: the expression_or_secretion result is listed as “no change”.

Regarding antithrombin: S137A, the expression_or_secretion result was “no change”.

Source of the values: article PMC4259341.
